Reference: paper PMC12669767

T1: YFP-NEDD4, P46934
T1 chain: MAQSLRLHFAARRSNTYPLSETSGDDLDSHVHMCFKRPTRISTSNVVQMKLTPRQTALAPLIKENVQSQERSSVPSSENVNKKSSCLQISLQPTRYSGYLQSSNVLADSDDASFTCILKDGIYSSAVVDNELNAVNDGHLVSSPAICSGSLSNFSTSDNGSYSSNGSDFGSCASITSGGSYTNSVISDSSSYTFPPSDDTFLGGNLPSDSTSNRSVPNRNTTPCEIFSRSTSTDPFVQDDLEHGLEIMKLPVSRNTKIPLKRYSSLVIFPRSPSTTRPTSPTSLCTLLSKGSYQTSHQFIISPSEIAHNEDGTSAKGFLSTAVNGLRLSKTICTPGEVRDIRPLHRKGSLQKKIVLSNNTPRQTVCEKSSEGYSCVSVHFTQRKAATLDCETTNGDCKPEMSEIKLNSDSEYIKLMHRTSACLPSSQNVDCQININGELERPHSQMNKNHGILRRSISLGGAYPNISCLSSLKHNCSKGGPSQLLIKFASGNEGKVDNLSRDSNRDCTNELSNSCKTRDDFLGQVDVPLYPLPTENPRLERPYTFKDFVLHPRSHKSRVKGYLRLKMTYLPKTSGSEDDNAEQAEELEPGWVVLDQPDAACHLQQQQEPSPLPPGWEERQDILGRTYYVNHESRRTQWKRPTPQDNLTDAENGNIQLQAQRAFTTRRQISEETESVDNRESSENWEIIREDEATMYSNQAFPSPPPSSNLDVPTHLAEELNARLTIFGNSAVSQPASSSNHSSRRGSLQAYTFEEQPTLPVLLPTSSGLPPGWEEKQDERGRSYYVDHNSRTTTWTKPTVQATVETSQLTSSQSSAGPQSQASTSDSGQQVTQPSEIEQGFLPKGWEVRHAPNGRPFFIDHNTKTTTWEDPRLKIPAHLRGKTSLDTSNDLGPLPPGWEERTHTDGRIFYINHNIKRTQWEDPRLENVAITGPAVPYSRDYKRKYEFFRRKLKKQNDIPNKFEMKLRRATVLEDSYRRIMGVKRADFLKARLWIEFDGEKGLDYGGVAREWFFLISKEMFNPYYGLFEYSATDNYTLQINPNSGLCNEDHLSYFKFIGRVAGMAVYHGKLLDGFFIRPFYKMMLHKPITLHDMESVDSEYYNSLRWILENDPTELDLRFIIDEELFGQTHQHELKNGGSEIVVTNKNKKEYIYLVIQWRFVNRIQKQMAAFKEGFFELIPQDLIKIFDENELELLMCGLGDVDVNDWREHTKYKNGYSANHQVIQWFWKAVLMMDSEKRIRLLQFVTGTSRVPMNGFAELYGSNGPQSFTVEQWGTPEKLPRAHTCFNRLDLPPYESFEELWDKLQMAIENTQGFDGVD

T2: NEDD4L, endogenous in HEK293T, Q96PU5
T2 chain: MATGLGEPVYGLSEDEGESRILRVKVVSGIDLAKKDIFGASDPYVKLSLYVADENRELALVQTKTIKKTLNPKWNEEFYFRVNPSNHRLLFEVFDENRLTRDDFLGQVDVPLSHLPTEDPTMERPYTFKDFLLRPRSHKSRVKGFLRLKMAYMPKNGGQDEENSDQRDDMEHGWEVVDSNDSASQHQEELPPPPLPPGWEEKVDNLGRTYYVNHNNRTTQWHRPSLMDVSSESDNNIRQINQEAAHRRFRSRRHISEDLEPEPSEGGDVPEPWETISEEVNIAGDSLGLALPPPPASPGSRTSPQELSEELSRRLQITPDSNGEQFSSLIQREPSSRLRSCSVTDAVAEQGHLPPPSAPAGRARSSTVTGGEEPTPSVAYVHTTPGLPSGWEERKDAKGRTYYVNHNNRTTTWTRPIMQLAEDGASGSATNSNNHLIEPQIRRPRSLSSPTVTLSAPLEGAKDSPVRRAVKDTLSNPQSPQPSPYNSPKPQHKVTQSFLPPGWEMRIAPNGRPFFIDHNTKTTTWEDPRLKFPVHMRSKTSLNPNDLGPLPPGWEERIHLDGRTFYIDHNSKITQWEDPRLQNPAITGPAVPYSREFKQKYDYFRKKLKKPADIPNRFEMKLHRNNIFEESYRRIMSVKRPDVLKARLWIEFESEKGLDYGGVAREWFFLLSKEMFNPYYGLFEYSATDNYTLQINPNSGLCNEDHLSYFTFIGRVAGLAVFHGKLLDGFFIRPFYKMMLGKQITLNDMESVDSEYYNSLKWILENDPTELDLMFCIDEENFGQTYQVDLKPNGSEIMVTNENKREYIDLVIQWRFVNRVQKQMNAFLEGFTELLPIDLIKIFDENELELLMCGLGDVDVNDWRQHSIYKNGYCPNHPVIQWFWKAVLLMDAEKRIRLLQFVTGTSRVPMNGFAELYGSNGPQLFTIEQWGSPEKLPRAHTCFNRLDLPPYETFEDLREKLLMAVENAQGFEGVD


Key:
YFP-NEDD4, P46934 = target: T1, YFP-NEDD4, P46934; assay: bead binding assay, fluorescence microscopy of YFP-NEDD4 on ALFA-TXNIP beads; conditions: chain shown with the change, value is the box-plot median, n = 40 beads, lysate of HEK293T cells over-expressing YFP-NEDD4, ctrl beads est. 20, parent: est. 38, read off a plot
[1] = target: ITCH, endogenous in HEK293T, Q96J02; assay: co-immunoprecipitation of ALFA-TXNIP, label-free quantitative interactome (mass spectrometry); conditions: chain shown with the change, immunoprecipitated from HEK293T cells, n = 3, read off a plot; for response (normalized abundance): abundances normalized to unspecific background binding to empty beads, scatter plot
Chain of ITCH, endogenous in HEK293T, Q96J02 (Q96J02 whole entry): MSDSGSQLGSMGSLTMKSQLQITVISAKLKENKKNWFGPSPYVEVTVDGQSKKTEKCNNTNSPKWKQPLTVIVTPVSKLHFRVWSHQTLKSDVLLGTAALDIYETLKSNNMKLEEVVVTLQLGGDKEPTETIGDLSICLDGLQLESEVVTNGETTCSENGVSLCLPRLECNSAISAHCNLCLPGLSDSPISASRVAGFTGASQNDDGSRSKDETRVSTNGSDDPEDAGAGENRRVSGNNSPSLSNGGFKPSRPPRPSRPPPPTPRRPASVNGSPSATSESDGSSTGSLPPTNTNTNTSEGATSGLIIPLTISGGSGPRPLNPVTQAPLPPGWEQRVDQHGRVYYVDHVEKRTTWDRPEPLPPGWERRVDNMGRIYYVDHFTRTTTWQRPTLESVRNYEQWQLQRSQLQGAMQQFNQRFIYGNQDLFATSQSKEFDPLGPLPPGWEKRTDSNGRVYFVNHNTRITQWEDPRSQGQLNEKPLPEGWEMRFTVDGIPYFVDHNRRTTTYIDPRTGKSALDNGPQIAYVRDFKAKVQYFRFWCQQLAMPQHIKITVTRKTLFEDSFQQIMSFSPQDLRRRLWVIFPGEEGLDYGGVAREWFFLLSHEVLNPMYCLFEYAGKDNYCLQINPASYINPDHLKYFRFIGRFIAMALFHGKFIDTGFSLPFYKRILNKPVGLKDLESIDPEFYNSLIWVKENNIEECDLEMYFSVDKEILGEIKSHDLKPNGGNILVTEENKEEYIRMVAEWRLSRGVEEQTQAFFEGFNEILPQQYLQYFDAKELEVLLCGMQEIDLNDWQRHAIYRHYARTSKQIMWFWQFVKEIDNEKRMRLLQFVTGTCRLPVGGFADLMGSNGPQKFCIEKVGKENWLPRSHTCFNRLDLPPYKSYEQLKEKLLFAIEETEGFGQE

[2] = target: T2, NEDD4L, endogenous in HEK293T, Q96PU5; assay: as above; conditions: chain shown with the change, immunoprecipitated from HEK293T cells, n = 3, read off a plot; for response: histogram, parent: est. 1.1e10
[3] = target: WWP2, endogenous in HEK293T, O00308; assay: as above; conditions: chain shown with the change, immunoprecipitated from HEK293T cells, n = 3, read off a plot; for response (normalized abundance): abundances normalized to unspecific background binding to empty beads, scatter plot
Chain of WWP2, endogenous in HEK293T, O00308 (O00308 whole entry): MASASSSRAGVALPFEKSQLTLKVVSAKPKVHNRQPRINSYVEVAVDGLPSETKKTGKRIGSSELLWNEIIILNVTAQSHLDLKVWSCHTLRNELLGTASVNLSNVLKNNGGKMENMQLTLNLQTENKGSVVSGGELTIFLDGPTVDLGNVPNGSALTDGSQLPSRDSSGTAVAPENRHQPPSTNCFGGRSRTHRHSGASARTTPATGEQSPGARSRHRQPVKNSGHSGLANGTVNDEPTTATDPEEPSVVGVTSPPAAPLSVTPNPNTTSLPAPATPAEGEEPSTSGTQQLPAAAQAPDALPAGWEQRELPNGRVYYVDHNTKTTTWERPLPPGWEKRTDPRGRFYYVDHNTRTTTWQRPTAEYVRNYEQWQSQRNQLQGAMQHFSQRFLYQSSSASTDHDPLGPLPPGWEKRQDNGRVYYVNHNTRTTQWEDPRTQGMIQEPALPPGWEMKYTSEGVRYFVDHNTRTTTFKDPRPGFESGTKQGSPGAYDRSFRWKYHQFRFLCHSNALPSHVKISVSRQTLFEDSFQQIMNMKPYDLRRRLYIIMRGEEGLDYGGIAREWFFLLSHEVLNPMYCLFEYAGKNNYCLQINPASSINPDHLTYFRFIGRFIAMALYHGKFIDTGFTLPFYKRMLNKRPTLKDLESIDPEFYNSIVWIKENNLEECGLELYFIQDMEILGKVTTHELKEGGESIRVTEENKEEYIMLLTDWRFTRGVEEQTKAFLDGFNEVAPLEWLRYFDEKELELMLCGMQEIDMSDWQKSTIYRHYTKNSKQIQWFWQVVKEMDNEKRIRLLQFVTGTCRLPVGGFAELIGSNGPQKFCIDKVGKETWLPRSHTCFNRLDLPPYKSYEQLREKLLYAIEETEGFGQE

[4] = target: HECW2, endogenous in HEK293T, Q9P2P5; assay: as above; conditions: chain shown with the change, immunoprecipitated from HEK293T cells, n = 3, read off a plot; for response (normalized abundance): abundances normalized to unspecific background binding to empty beads, scatter plot
Chain of HECW2, endogenous in HEK293T, Q9P2P5 (Q9P2P5 whole entry): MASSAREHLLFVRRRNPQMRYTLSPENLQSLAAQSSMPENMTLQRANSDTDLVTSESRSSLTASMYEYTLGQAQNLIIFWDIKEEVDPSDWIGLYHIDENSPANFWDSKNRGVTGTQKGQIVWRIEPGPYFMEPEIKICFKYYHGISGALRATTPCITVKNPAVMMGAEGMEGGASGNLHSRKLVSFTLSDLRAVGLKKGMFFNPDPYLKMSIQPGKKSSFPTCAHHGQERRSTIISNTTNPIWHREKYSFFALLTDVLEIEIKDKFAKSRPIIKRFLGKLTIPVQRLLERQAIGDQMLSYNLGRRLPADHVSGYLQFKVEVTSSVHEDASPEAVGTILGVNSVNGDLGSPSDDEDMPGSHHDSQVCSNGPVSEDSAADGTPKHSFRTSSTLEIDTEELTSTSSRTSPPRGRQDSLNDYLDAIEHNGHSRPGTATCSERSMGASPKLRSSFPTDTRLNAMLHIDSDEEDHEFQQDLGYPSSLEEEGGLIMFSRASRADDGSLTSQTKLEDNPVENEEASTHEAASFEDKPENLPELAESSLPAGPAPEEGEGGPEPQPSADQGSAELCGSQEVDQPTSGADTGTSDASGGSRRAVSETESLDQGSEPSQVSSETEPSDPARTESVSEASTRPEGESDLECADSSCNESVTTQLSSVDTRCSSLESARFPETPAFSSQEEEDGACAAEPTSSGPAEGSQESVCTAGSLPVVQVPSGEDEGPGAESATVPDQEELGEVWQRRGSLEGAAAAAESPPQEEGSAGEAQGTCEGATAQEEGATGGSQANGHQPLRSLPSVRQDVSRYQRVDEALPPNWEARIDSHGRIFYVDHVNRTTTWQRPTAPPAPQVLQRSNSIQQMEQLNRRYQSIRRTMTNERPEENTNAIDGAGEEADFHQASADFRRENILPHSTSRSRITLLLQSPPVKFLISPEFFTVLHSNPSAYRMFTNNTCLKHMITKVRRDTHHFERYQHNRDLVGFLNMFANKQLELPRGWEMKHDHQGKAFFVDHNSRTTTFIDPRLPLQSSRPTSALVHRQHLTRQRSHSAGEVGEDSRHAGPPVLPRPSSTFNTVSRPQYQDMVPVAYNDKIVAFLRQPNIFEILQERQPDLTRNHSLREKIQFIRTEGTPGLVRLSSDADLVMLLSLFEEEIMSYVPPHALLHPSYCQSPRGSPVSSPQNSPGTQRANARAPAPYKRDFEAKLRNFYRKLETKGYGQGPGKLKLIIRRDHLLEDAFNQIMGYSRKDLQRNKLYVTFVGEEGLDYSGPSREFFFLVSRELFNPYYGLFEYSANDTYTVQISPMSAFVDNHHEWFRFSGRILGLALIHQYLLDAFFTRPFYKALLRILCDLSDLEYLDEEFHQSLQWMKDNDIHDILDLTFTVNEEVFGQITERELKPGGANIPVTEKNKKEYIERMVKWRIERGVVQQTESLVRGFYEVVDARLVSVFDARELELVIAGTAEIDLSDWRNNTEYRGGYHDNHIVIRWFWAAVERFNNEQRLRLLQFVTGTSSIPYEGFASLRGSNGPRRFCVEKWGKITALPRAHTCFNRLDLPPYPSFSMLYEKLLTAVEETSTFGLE

[5] = abundances normalized to unspecific background binding to empty beads

Row | response (YFP-NEDD4, P46934; printed p=0.2365 against ALFA-TXNIP) [A.U] | response (normalized abundance) ([1]; parent: est. 3.0e8) | other: log2 PPxY331/WT [1] [log2] | response [2, 5] [abundance] | other: log2 PPxY331/WT [2] [log2] | response (normalized abundance) ([3]; parent: est. 1.4e9) | other: log2 PPxY331/WT [3] [log2] | response (normalized abundance) ([4]; parent: est. 1.0e8) | other: log2 PPxY331/WT [4] [log2] | response (YFP-NEDD4, P46934; printed p<0.0001 against ALFA-TXNIP) [A.U] | response (normalized abundance) ([1]; parent: est. 3.5e8) | other: log2 PPxY/WT ([1]; volcano plot) [log2] | response (normalized abundance) ([2]; abundances normalized to unspecific background binding to empty beads, scatter plot, parent: est. 1.0e10) | other: log2 PPxY/WT ([2]; volcano plot) [log2] | response (normalized abundance) ([3]; parent: est. 1.3e9) | response (normalized abundance) ([4]; parent: est. 1.3e8) | Binder
1 | 35 | 1.5e+08 | -1.1 | 6.6e+09 | -0.7 | 4.5e+08 | -1.8 | 1.3e+06 | -4.1 | – | – | – | – | – | – | – | ALFA-tagged TXNIP (thioredoxin interacting protein), expressed in HEK293T, Q9H3M7 PPCY331AACA (protein) MVMFKKIKSFEVVFNDPEKVYGSGEKVAGRVIVEVCEVTRVKAVRILACGVAKVLWMQGSQQCKQTSEYLRYEDTLLLEDQPTGENEMVIMRPGNKYEYKFGFELPQGPLGTSFKGKYGCVDYWVKAFLDRPSQPTQETKKNFEVVDLVDVNTPDLMAPVSAKKEKKVSCMFIPDGRVSVSARIDRKGFCEGDEISIHADFENTCSRIVVPKAAIVARHTYLANGQTKVLTQKLSSVRGNHIISGTCASWRGKSLRVQKIRPSILGCNILRVEYSLLIYVSVPGSKKVILDLPLVIGSRSGLSSRTSSMASRTSSEMSWVDLNIPDTPEAAACAMDVIPEDHRLESPTTPLLDDMDGSQDSPIFMYAPEFKFMPPPTYTEVDPCILNNNVQ
2 | – | – | – | 3.8e+09 | – | – | – | – | – | 19 | 150000 | -4.5 | 4e+09 | -1.5 | 800000 | 80000 | ALFA-tagged TXNIP (thioredoxin interacting protein), expressed in HEK293T, Q9H3M7 PPCY331AACA; PPTY375AATA (protein) MVMFKKIKSFEVVFNDPEKVYGSGEKVAGRVIVEVCEVTRVKAVRILACGVAKVLWMQGSQQCKQTSEYLRYEDTLLLEDQPTGENEMVIMRPGNKYEYKFGFELPQGPLGTSFKGKYGCVDYWVKAFLDRPSQPTQETKKNFEVVDLVDVNTPDLMAPVSAKKEKKVSCMFIPDGRVSVSARIDRKGFCEGDEISIHADFENTCSRIVVPKAAIVARHTYLANGQTKVLTQKLSSVRGNHIISGTCASWRGKSLRVQKIRPSILGCNILRVEYSLLIYVSVPGSKKVILDLPLVIGSRSGLSSRTSSMASRTSSEMSWVDLNIPDTPEAAACAMDVIPEDHRLESPTTPLLDDMDGSQDSPIFMYAPEFKFMPAATATEVDPCILNNNVQ
